Legend:
[1] = biological target: 30S IC_(−1/3): canonical 30S initiation complex lacking IF1 and IF3 (E. coli (strain MRE600)); test: FRET or BRET
[2] = biological target: 30S IC_(−1/3,Met): pseudo 30S initiation complex lacking IF1 and IF3 carrying Met-tRNA^fMet (E. coli (strain MRE600)); test: FRET or BRET

Kd [1]: 50 nM
kon [1]: 1.3e+07 M⁻¹ s⁻¹
koff [2]: 1.3 s⁻¹
kon [2]: 19000 M⁻¹ s⁻¹
Substance: IF2(Cy5): Cy5-labeled E. coli initiation factor 2, γ-isoform, G810C (natural protein)
